Test results reported in publication PMC3029397.

Target: dual chain avidin dcAvd(I117C5→4S16C,V115H6→5)
Assay: non-reducing SDS-PAGE; denatured in SDS-PAGE sample buffer without β-mercaptoethanol at 95°C for ten minutes, 15% gel, Coomassie staining

**Q.** How did the stoichiometry N turn out when “dual chain avidin dcAvd(I117C5→4S16C,V115H6→5)” was run?
**A.** Its stoichiometry N is 2.
